Test [1] concerns the target wild-type human tau 441 with GFP fused at the N-terminal (human) (UniProt P10636). The test is described as follows: immunocytochemistry, SHSY5Y cells 36 h after transfection.
Test [2] has as its target tau mutant M123 (triple mutant, M1+M2+M3) with GFP fused at the N-terminal (human) (UniProt P10636). Described as above.
For test [3] the target is unchanged. As to the kind of experiment: immunocytochemistry, transfected SHSY5Y cells.

Chain of tau mutant M123 (triple mutant, M1+M2+M3) with GFP fused at the N-terminal (human) (P10636 other isoform, or with tags, fused parts or gaps mutant): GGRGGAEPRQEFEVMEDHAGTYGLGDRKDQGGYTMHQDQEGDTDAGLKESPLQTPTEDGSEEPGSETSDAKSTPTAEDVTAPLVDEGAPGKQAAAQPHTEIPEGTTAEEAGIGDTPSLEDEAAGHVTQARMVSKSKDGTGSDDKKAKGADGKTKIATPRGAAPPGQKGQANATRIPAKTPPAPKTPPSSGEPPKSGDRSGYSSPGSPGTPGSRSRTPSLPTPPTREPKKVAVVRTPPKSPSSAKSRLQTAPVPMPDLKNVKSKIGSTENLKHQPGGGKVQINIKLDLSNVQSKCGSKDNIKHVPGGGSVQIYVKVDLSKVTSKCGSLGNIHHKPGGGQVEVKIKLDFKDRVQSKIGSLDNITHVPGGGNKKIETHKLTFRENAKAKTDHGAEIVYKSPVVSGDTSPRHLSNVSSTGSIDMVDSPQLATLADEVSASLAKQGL
Chain of wild-type human tau 441 with GFP fused at the N-terminal (human) (P10636 other isoform, or with tags, fused parts or gaps): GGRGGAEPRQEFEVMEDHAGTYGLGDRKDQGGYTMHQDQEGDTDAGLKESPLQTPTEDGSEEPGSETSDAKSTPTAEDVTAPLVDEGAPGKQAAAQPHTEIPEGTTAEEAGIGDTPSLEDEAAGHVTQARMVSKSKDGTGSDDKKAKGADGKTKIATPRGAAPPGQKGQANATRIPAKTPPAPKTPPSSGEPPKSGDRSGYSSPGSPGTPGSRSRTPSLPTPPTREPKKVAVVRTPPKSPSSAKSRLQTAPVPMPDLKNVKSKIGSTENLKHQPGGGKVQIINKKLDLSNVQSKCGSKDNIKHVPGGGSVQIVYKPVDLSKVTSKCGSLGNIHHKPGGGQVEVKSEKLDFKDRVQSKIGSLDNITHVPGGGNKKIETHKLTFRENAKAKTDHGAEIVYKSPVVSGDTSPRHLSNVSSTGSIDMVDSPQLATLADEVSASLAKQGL

AT8 antibody (S202/T205 specific): the percentage of transfected cells with AT8 immunolabeling in test [1] came out at 9.17%; in test [2], 83.2%.

For the substance AT180 antibody (phosphoepitope T231), in test [3], the percentage of transfected cells AT180 immunopositive worked out at 22.1%.
